# Measurements taken from US20210316003A1 (Immunomedics, Inc., priority 2020, published 2021).
# Like-named read-outs stand apart in the source and are kept apart here.
# Assays:
# [1] = test system: patients with metastatic urothelial cancer (mUC)
# Procedure: Endpoints included safety, investigator-evaluated objective response rate (ORR per RECIST 1.1), clinical benefit rate, duration of response (DOR), progression-free survival (PFS), and overall survival (OS). Sequencing analysis of differentially mutated and expressed genes and pathways was performed in subsets of tumors from responders and non-responders.
# Hematopoietic growth factors or blood transfusions were allowed at the investigator's discretion, but not prior to the first dose. Other supportive care (antiemetics, anti-diarrheal medications, or bone-stabilizing agents) were allowed as medically needed.
# Additional secondary objectives included assessment of pharmacokinetics and immunogenicity, which were previously reported by Ocean and colleagues (Ocean et al., 2017, Cancer 123:3843-54). Safety evaluations included adverse events (AEs), serious adverse events (SAEs), laboratory safety evaluations, vital signs, physical examinations, and 12-lead electrocardiograms (ECG; performed at baseline, after completion of the infusion on day 1 of every even-numbered treatment cycle, at the end of treatment, and at the end of the study). AEs were graded according to the National Cancer Institute Common Terminology Criteria for Adverse Events, version 4.0.
# The data cut-off date for this analysis was Sep. 1, 2018. ORR and CBR were calculated with 95% confidence intervals estimated by the Clopper-Pearson method (Clopper & Pearson, 1934, Biometrika 26:404-13). PFS, OS, and time-to-event endpoints were analyzed by the Kaplan-Meier method, with medians and corresponding 95% confidence intervals determined by the Brookmeyer and Crowley method with log-log transformation. Descriptive statistics were used to characterize AEs. Fischer's exact test was applied to a matrix of pathway-associated gene counts of mutated and wild type phenotypes between responders and non-responders to identify pathways enriched in either of the two response groups. P-values for single sample GSEA (ssGSEA) enrichment score differences between the responder and non-responder patient groups were obtained from the Mann-Whitney statistical test.
# [2] = test system: TNBC xenografts; details: nude mice bearing TNBC xenografts, independent of BRCA1/2 mutation status; cited from earlier work
# [3] = mUC, N = 45, regardless of causality
# [4] = mUC, N = 45, listed as Sacituzumab Govitecan
substance,measurement,setting,value
sacituzumab govitecan,Maximum tolerated dose,"[1]; days 1 and 8 every 21 days, intravenous",10 mg/kg
same,Patients with dose reductions,"[1]; mUC, 18 of 45",40%
same,AEs leading to death or treatment-related deaths,"[1]; mUC, N = 45",no treatment-related deaths were reported
same,"Anemia, grade ≥3","[1]; mUC, N = 45",13%
same,"Diarrhea, grade ≥3","[1]; mUC, N = 45",9%
same,"Discontinued for treatment-related AE, %","[1]; mUC, N = 45",(11.1) %
same,"Fatigue, grade ≥3","[1]; mUC, N = 45",9%
same,"Febrile neutropenia, grade ≥3","[1]; mUC, N = 45",7%
same,"Hypophosphatemia, grade ≥3","[1]; mUC, N = 45",11%
same,"Neutropenia, grade ≥3","[1]; mUC, N = 45",38%
same,Peripheral neuropathy or cardiovascular AEs of grade 3 or higher,"[1]; mUC, N = 45",no cases
same,"Alopecia, Any Grade, % of patients",[1]; [3],(40.0) %
same,"Alopecia, Any Grade, No. of patients",[1]; [3],18
same,"Alopecia, Grade 3, No. of patients",[1]; [3],0
same,"Alopecia, Grade 4, No. of patients",[1]; [3],0
same,"Anemia, Any Grade, % of patients",[1]; [3],(33.3) %
same,"Anemia, Any Grade, No. of patients",[1]; [3],15
same,"Anemia, Grade 3, % of patients",[1]; [3],(13.3) %
same,"Anemia, Grade 3, No. of patients",[1]; [3],6
same,"Anemia, Grade 4, No. of patients",[1]; [3],0
same,"Any adverse event, Any Grade, % of patients",[1]; [3],(100) %
same,"Any adverse event, Any Grade, No. of patients",[1]; [3],45
same,"Any adverse event, Grade 3, % of patients",[1]; [3],(55.6) %
same,"Any adverse event, Grade 3, No. of patients",[1]; [3],25
same,"Any adverse event, Grade 4, % of patients",[1]; [3],17.8%
same,"Any adverse event, Grade 4, No. of patients",[1]; [3],8
same,"Back pain, Any Grade, % of patients",[1]; [3],(22.2) %
same,"Back pain, Any Grade, No. of patients",[1]; [3],10
same,"Back pain, Grade 3, No. of patients",[1]; [3],0
same,"Back pain, Grade 4, No. of patients",[1]; [3],0
same,"Constipation, Any Grade, % of patients",[1]; [3],(44.4) %
same,"Constipation, Any Grade, No. of patients",[1]; [3],20
same,"Constipation, Grade 3, No. of patients",[1]; [3],0
same,"Constipation, Grade 4, No. of patients",[1]; [3],0
same,"Cough, Any Grade, % of patients",[1]; [3],(31.1) %
same,"Cough, Any Grade, No. of patients",[1]; [3],14
same,"Cough, Grade 3, No. of patients",[1]; [3],0
same,"Cough, Grade 4, No. of patients",[1]; [3],0
same,"Decreased appetite, Any Grade, % of patients",[1]; [3],(37.8) %
same,"Decreased appetite, Any Grade, No. of patients",[1]; [3],17
same,"Decreased appetite, Grade 3, No. of patients",[1]; [3],0
same,"Decreased appetite, Grade 4, No. of patients",[1]; [3],0
same,"Diarrhea, Any Grade, % of patients",[1]; [3],(68.9) %
same,"Diarrhea, Any Grade, No. of patients",[1]; [3],31
same,"Diarrhea, Grade 3, No. of patients",[1]; [3],4
same,"Diarrhea, Grade 4, No. of patients",[1]; [3],0
same,"Dizziness, Any Grade, % of patients",[1]; [3],(22.2) %
same,"Dizziness, Any Grade, No. of patients",[1]; [3],10
same,"Dizziness, Grade 3, No. of patients",[1]; [3],0
same,"Dizziness, Grade 4, No. of patients",[1]; [3],0
same,"Fatigue, Any Grade, % of patients",[1]; [3],(57.8) %
same,"Fatigue, Any Grade, No. of patients",[1]; [3],26
same,"Fatigue, Grade 3, % of patients",[1]; [3],(8.9) %
same,"Fatigue, Grade 3, No. of patients",[1]; [3],4
same,"Fatigue, Grade 4, No. of patients",[1]; [3],0
same,"Febrile neutropenia, Any Grade, % of patients",[1]; [3],(6.7) %
same,"Febrile neutropenia, Any Grade, No. of patients",[1]; [3],3
same,"Febrile neutropenia, Grade 3, % of patients",[1]; [3],(6.7) %
same,"Febrile neutropenia, Grade 3, No. of patients",[1]; [3],3
same,"Febrile neutropenia, Grade 4, No. of patients",[1]; [3],0
same,"Hypophosphatemia, Any Grade, % of patients",[1]; [3],(20.0) %
same,"Hypophosphatemia, Any Grade, No. of patients",[1]; [3],9
same,"Hypophosphatemia, Grade 3, % of patients",[1]; [3],(11.1) %
same,"Hypophosphatemia, Grade 3, No. of patients",[1]; [3],5
same,"Hypophosphatemia, Grade 4, No. of patients",[1]; [3],0
same,"Nausea, Any Grade, % of patients",[1]; [3],(66.7) %
same,"Nausea, Any Grade, No. of patients",[1]; [3],30
same,"Nausea, Grade 3, % of patients",[1]; [3],(2.2) %
same,"Nausea, Grade 3, No. of patients",[1]; [3],1
same,"Nausea, Grade 4, No. of patients",[1]; [3],0
same,"Neutropenia (incl. neutrophil count decreased), Any Grade, % of patients",[1]; [3],(51.1) %
same,"Neutropenia (incl. neutrophil count decreased), Any Grade, No. of patients",[1]; [3],23
same,"Neutropenia, Grade 3, % of patients",[1]; [3],(22.2) %
same,"Neutropenia, Grade 3, No. of patients",[1]; [3],10
same,"Neutropenia, Grade 4, % of patients",[1]; [3],15.6%
same,"Neutropenia, Grade 4, No. of patients",[1]; [3],7
same,"Pyrexia, Any Grade, % of patients",[1]; [3],(24.4) %
same,"Pyrexia, Any Grade, No. of patients",[1]; [3],11
same,"Pyrexia, Grade 3, No. of patients",[1]; [3],0
same,"Pyrexia, Grade 4, No. of patients",[1]; [3],0
same,"Rash, Any Grade, % of patients",[1]; [3],(22.2) %
same,"Rash, Any Grade, No. of patients",[1]; [3],10
same,"Rash, Grade 3, No. of patients",[1]; [3],0
same,"Rash, Grade 4, No. of patients",[1]; [3],0
same,"Vomiting, Any Grade, % of patients",[1]; [3],(31.1) %
same,"Vomiting, Any Grade, No. of patients",[1]; [3],14
same,"Vomiting, Grade 3, % of patients",[1]; [3],(2.2) %
same,"Vomiting, Grade 3, No. of patients",[1]; [3],1
same,"Vomiting, Grade 4, No. of patients",[1]; [3],0
same,AEs leading to death or treatment-related deaths,[1]; [4],No AEs leading to death or treatment-related deaths were reported
same,Peripheral neuropathy or cardiovascular AEs of grade 3 or higher,[1]; [4],No cases
same,"Tumor growth in combination with olaparib, rucaparib and talazoparib",[2],Synthetic lethality and synergistic inhibition of tumor growth
